These results are taken from US20170204167A1.

The target in test [1] is HA of H3N2 A/Brisbane/10/07 (influenza A virus H3N2 A/Brisbane/10/07). Nature of the test: ELISA on HA. (In general: In an ELISA, binding on a coated surface is turned into a signal by an enzyme label.)
Test [2] concerns the target HA of H3N2 A/Wyoming/3/03 (influenza A virus H3N2 A/Wyoming/3/03). Nature of the test: ELISA on recombinant or purified HA.
The target in test [3] is HA of H3N2 A/Brisbane/10/07 (influenza A virus H3N2 A/Brisbane/10/07). Nature of the test: ELISA on recombinant or purified HA.
Test [4] has as its target HA of H3N2 A/New York/55/04 (influenza A virus H3N2 A/New York/55/04). Nature of the test: ELISA on recombinant or purified HA.
The target in test [5] is HA of H1N1 A/Brisbane/59/07 (influenza A virus H1N1 A/Brisbane/59/07). Nature of the test: ELISA on recombinant or purified HA.
Test [6] has as its target HA of B/Ohio/1/05 (influenza B virus B/Ohio/1/05). Nature of the test: ELISA on HA.

B1: FI28 variant 1 (antibody, V domains shown)
VH: EVQLVESGGGAVQPGESLKLSCAASGFTFSNYGMHWVRQAPGKGLEWVAVISYDGSNKYYADSVKGRFTISRDNSKDTLYLQMNSLRAEDTALFYCAKERPLRLLRYFDWLSGGANDYWGQGTLVTVSS
VL: DIVMTQSPDSLAVSLGERATINCKSSQSVLYSSNNKNYLAWYQQKPGQPPKLLIDWASTRESGVPDRFSGSGSGTDFTLTISNLQVEDVAVYYCQQYYRSPSFGQGTKLEIK
For the molecule B1, the Binding to HA by ELISA (% of subtype specific control antibodies) in test [1] worked out at 1.3%.

B2: FI6 variant 2 (antibody, V domains shown)
VH: QVQLVQSGGGVVQPGRSLRLSCVASGFTFSTYAMHWVRQAPGRGLEWVAVISYDGNYKYYADSVKGRFSISRDNSNNTLHLEMNTLRTEDTALYYCAKDSQLRSLLYFEWLSQGYFDPWGQGTLVTVTS
VL: DIQMTQSPDSLAVSLGARATINCKSSQSVTFNYKNYLAWYQQKPGQPPKVLIYWASARESGVPDRFSGSGSGTDFTLTISSLQAEDVAVYYCQQHYRTPPTFGQGTKVEIK
A word on the EC50: it is the concentration that produces a half-maximal response. Take B2: the EC50 in test [2] was 0.019 µg/mL; in test [3], 0.041 µg/mL; in test [4], 0.032 µg/mL; in test [5] it was 0.015 µg/mL; in test [6], over 20 µg/mL. This molecule also gave a Binding to HA by ELISA (% of subtype specific control antibodies) in test [1] of 68.5%.
